The target of assay [1] is T1, Human DLL3 full-length protein on cells (human, UniProt Q9NYJ7 27-618).
T1 construct: H1184 and DMS53 express DLL3 themselves; The cell line is named under assay; also called H1184 cells; DLL3/H82
T1 sequence: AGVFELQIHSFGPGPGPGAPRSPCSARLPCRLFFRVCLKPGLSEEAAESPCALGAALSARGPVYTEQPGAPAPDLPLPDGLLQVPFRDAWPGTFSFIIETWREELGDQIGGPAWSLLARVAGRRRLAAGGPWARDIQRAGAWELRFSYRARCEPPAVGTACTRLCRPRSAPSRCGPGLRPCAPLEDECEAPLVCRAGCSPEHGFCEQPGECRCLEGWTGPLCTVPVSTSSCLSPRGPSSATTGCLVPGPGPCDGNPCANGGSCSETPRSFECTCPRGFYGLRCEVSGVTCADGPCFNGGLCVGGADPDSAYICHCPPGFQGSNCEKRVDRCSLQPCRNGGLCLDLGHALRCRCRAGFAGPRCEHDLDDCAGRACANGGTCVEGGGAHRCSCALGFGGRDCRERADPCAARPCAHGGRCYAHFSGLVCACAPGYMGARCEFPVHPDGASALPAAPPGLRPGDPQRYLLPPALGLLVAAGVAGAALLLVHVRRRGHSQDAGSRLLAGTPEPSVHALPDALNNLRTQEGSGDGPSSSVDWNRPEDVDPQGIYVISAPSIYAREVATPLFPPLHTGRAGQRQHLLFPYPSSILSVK
The assay can be described thus: FACS on H1184 cells. How it is done:
Cells of the DLL3-expressing small cell lung cancer cell lines H1184 (ATCC, Cat. No. CRL-5858), DLL3/H82, cynoDLL3/CHO-s, and RatDLL3/CHO-s were suspended at 1×10^6/mL in FACS buffer (1% BSA+pH 7.4 PBS), and the cell suspensions were added to a 96-well round-bottom plate (Corning, 3795) at 100 μL/well. The plate was centrifuged at 300 g for 5 min, and the supernatant was removed. Different concentrations of test antibodies were added at 100 μL/well. The plate was incubated in the dark in a refrigerator at 4° C. for 1 h. After 3 washes by centrifugation at 300 g, working concentrations of APC anti-human IgG Fc (BioLegend, 410712) or PE F(ab′)2-goat anti-human IgG (invitrogen, H10104) were added. The plate was incubated in the dark in a refrigerator at 4° C. for 40 min. After 3 washes by centrifugation at 300 g, the geometric mean fluorescence intensity was measured on an Invitrogen flow cytometer, and the EC50 values of the antibodies in binding to DLL3-expressing cells were calculated.

Assay [2] deals with T2, hDLL3(ECD)-strep twin, biotinylated (human, UniProt Q9NYJ7 27-492, biotinylated (site not stated)).
T2 construct: also called Biotinylated DLL3 antigen; Biotinylated DLL3-Strep
The assay can be described thus: ELISA, biotinylated antigen on streptavidin plate. How it is done: Streptavidin (abcam, ab136200, 1 μg/mL) was plated at 100 μL/well, and the plate was incubated overnight at 4° C. The plate was washed 3 times with 250 μL of PBST solution (PBS containing 0.1% Tween 20) per well. The plate was blocked with 250 μL of 5% milk per well at 37° C. for 2 h. The plate was washed 3 times with 250 μL of PBST solution per well. Biotinylated DLL3 antigen (1 μg/mL) (SEQ ID NO: 9) was added, and the plate was incubated at 37° C. for 1 h. The plate was washed 3 times with 250 μL of PBST solution per well. […] The plate was washed 6 times with 250 μL of PBST solution per well. […] The plate was washed 6 times with 250 μL of PBST solution per well. TMB (KPL, 5120-0077) substrate solution was added at 100 μL/well, and color development was allowed at room temperature for 5-10 min. 1 M H₂SO₄ was added at 100 μL/well to stop the color development, and microplate reader (Molecular Devices, VERSA max) readings at 450 nm were taken.

In assay [3] the target is T3, mouse DLL3 (KACTUS, DLL-MM103) (mouse, UniProt O88516 33-490, limits assumed).
T3 construct: bought antigen of the Biacore assay; construct not described
T3 sequence (looked up): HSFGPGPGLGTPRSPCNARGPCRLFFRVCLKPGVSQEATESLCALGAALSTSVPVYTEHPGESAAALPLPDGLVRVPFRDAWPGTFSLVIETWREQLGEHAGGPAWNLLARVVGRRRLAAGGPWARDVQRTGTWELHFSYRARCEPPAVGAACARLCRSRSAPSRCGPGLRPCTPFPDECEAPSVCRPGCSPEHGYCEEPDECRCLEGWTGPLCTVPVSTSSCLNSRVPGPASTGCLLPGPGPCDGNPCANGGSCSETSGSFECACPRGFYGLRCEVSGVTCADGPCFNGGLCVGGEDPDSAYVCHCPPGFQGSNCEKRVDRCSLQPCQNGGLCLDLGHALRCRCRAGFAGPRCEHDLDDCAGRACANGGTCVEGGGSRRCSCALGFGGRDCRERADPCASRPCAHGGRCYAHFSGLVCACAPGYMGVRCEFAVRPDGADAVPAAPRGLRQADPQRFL
The assay can be described thus: SPR (Biacore 8K), antibody captured on Protein A chip, 1:1 fit. From the text: (§1) Test antibodies were affinity-captured with a Protein A biosensor chip (Cat. #29127556, Cytiva) for 18 seconds, and then the antigens human DLL3 (ACRO, DLL3-H52H4), cynomolgus monkey DLL3 (KACTUS, DLL-RM103), and mouse DLL3 (KACTUS, DLL-MM103) were allowed to flow over the surface of the chip for 180 seconds, followed by 600 seconds of dissociation. Reaction signals were detected in real time using a Biacore 8K (Cytiva) instrument to obtain association and dissociation curves. After the dissociation in each experimental cycle, the biosensor chip was washed and regenerated with a 10 mM glycine-hydrochloric acid solution (pH 1.5) (Cat. #BR-1003-54, Cytiva). A 1:1 model was fit to the data. The results are shown in Table 12-1, Table 12-2, and Table 12-3.

Assay [4] has as its target T3, mouse DLL3 (KACTUS, DLL-MM103). The assay can be described thus: SPR (Biacore 8K), antibody captured on Protein A chip.
Text: as §1

B1: Hu6 (antibody, human IgG1, kappa, V domains shown)
VH: EVQLVQSGSELKKPGASVKVSCKASGYTFTDYYMNWVRQAPGQGLEWMGIINPYSGVTIYNHKFKGRFALSVDKSSNTAYLQISSLKAEDTAVYYCARQDSLLDYAMDYWGQGTTVTVSS
VL: DIQMTQSPSSLSASVGDRVTITCHASQGISGNMGWLQQKPGKAPKGLIYHGANLEDGVPSRFSGSGSGADYTLTISSLQPEDFADYYCVQYAQFPYTFGGGTKVEIKR
notes: also called hAb6L4H12
Broadly, the EC50 is the concentration needed to bring the measured effect to its halfway point. In general, Kd refers to the constant that tells how readily two partners part at equilibrium. A higher Kd goes with a looser complex. Consider B1, for which the EC50 in assay [1] was 0.06 nM; in assay [2] it was 0.04 nM. In assay [1], this molecule displayed an Emax of 2070. Further, the affinity in assay [3], expressed as Kd, was 6.52 nM.

B2: Hu100 (antibody, human IgG1, kappa, V domains shown)
VH: EVQLVESGGGLVKPGGSLRLSCAASGFTFSDSGMHWIRQAPGKGLEWVSYISSGSSTIHYADTVKGRFTISRDNAKNSLYLQMNSLRAEDTAVYYCASPLYYYGRSYNAVAYWGQGTTVTVSS
VL: DIQMTQSPSSLSASVGDRVTITCHASQNINVWLSWYQQKPGKVPKLLIYKASDLHTGVPSRFSGSGSGTDFTLTISSLQPEDVATYYCQQGQSYPLTFGGGTKVEIKR
notes: also called hAb100L1H1
Turning to B2, the EC50 turned out to be 0.15 nM in assay [1] and 0.05 nM in assay [2]. For the same molecule, the Emax in assay [1] was 2110. Also, the binding result in assay [4] was “no binding”.

For the origin of these results see patent publication US20250057968A1, “ANTI-DLL3 ANTIBODY AND PHARMACEUTICAL USE THEREOF, AND ANTIBODY-DRUG CONJUGATE CONTAINING ANTI-DLL3 ANTIBODY” (Jiangsu Hengrui Pharmaceuticals Co., Ltd., priority 2021, published 2025).
